{
  "source": "paper doi:10.1101/2024.04.26.590571",
  "about": "(bioRxiv, 2024)",
  "target": "the molecule itself",
  "test": "cryo-EM structure",
  "data": [
    {"protein": "L-protein (BchL homodimer), electron donor component of Rhodobacter sphaeroides DPOR (enzyme) MSPKDLTIPTGADGEGSVQVHLDEADKITGAKVFAVYGKGGIGKSTTSSNLSAAFSILGKRVLQIGCDPKHDSTFTLTGSLVPTVIDVLKDVDFHPEELRPEDFVFEGFNGVMCVEAGGPPAGTGCGGYVVGQTVKLLKQHHLLDDTDVVIFDVLGDVVCGGFAAPLQHADQAVVVTANDFDSIYAMNRIIAAVQAKSKNYKVRLAGCVANRSRATDEVDRFCKETNFRRLAHMPDLDAIRRSRLKKKTLFEMDEDQDVLAARAEYIRLAESLWRGLDPIDPHSLPDRDIFELLGFD", "values": [
      {"measurement": "stoichiometry N", "value": 2}
    ]}
  ]
}
